Patent US4374928A, “Novel reductase” (Hoffmann-La Roche Inc., priority 1981, dated 1983)

B1: L12-transacetylase: Partially purified E. coli Q13 enzyme that acetylates the amino terminal serine of Met-L12 to form acetyl-Met-L12 (L7) (protein, UniProt P13857 1-179, looked up)
Ribosomal-protein-serine …: MTETIKVSESLELHAVAENHVKPLYQLICKNKTWLQQSLNWPQFVQSEEDTRKTVQGNVMLHQRGYAKMFMIFKEDELIGVISFNRIEPLNKTAEIGYWLDESHQGQGIISQALQALIHHYAQSGELRRFVIKCRVDNPQSNQVALRNGFILEGCLKQAEFLNDAYDDVNLYARIIDSQ
modifications: partially purified

What was measured:
peptide MetSO reductase = target: T1, peptide MetSO reductase (Escherichia coli, UniProt P0A744); experiment: Inhibition of the reduction of MetSO-L12 by excess free MetSO; format: biochemical, E. coli; settings: 1×10^-4 M MetSO, about 60 times the concentration of MetSO-L12; read-out: inhibition of the enzymatic activity of peptide MetSO reductase
T1 construct: made in house; host or cells: E. coli Z19 cells (endogenous enzyme, not recombinant; ammonium sulfate, DE-52, Ultrogel AcA-44, DEAE-Sephadex)
T1 sequence (P0A744 2-212): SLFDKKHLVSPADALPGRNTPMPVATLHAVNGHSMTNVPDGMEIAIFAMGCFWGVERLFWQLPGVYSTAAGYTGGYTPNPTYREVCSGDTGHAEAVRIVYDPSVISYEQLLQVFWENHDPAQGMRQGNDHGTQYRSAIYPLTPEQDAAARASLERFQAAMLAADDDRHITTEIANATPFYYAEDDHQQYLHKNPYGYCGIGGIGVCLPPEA
Protocol: The assay for the reduction of MetSO-L12 to L12 is based on the ability of L12-transacetylase to specifically acetylate the amino terminal serine of Met-L12 to form acetyl-Met-L12, i.e. L7. A two-step incubation was used. […] After a 60 min incubation at 37°, the reaction mixtures were placed on ice and to each reaction mixture were added 2 μmol of sodium arsenite, 1.2 μg partially purified L12-transacetylase (see below) and [^3 H] acetyl-CoA (935 pmoles, 237 cpm/pmol) and the volume brought to 50 μl. The second incubation (acetylation reaction) was for 5 min at 37°, after which the reaction mixtures were diluted with 3 ml of cold buffer A and filtered through a nitrocellulose filter. The filters were washed with 10 ml of this same buffer, dissolved in scintillation fluid and the radioactivity determined. Under these conditions L12 and acetyl-L12 are quantitatively retained by the nitrocellulose filter. The results are reported as pmoles of acetyl-L12 formed under these conditions.

Met-L12 = experiment: L12-transacetylase assay: acetylation of Met-L12; format: biochemical, E. coli
Protocol: The fractions containing the enzyme activity were pooled (750 mg), concentrated and applied to a hydroxyapatite column (2×15 cm) equilibrated with a buffer containing 25 mM KPO4, pH 6.9, 1 mM β-mercaptoethanol and 10% glycerol. The column was eluted with a gradient from 25 mM to 250 mM KPO4, pH 6.9, containing 1 mM β-mercaptoethanol and 10% glycerol and the fractions containing enzymatic avtivity were pooled and concentrated (72 mg). This procedure yielded a 225 fold purification of the enzyme. Under standard conditions of assay as set forth by Brot and Weissbach [Biochem. Biophys. Res. Commun. 49, 673 (1972)] this fraction acetylated 46 nmols of Met-L12 per mg protein in 5 min. […] These properties are essential in order to use the enzymatic acetylation of Met-L12 as an assay for MetSO-L12 reduction. It was seen that at all concentrations of Met-L12, only one-third of the protein is acetylated.

Molecule	inhibition at 100 µM (peptide MetSO reductase)	MetSO-L12 as substrate for acetylation (Met-L12)	fraction of Met-L12 acetylated (Met-L12; at all concentrations of Met-L12)	Met-L12 acetylated (Met-L12; in 5 min, standard conditions of assay, hydroxyapatite fraction)
C[S+]([O-])CC[C@H](N)C(=O)O (stereo partly shown) [MetSO, methionine sulfoxide]	< 20%			
B1		not a substrate	one-third	46 nmols per mg protein
